Results published in the RNAGym collection of RNA variant scans (doi:10.1073/pnas.2313332121).
Fewer inactive variants are shown than the library holds.

B1: TPR 5TU (parent)
chain: GGAUCUUCUCGAUCUAACAAAAAAGACAAAUCUGCCACAAAGCUUGAGAGCAUCUUCGGAUGCAGAGGCGGCAGCCUUCGGUGGCGCGAUAGCGCCAACGUUCUCAACUAUGACACGCAAAACGCGUGCUCCGUUGAAUGGAGUUUAUCAUG

Variants of: B1
Assay: polymerase ribozyme fitness, log enrichment relative to wild type (log ratio); higher = more active; in vitro selection for triplet polymerase activity
Method in brief: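 For each subunit of a heterodimeric triplet polymerase ribozyme, a mutant library was built by PCR and transcribed, then taken through a single in vitro selection round in triplicate. Selection involved annealing to a biotinylated primer, the partner subunit and triplets, incubation frozen at −7 °C, gel excision of extended constructs, capture on streptavidin beads and RT-PCR. Genotypes were retained after Illumina sequencing of inputs and outputs only with ≥10 input reads and ≥1 read in each output. Fitness is defined as the logarithm of a genotype's enrichment relative to wild-type enrichment, using inverse-variance-weighted averages across replicates, with the logarithm taken to base 2.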

Point of comparison: GGAUCUUCUCGAGCUAACAAAAAAGACAAAUCUGCCACAAAGCUUGAGAGCAUCUUCGGAUGCAGAGGCGGCAGCCUUCGGUGACGCGAUAGCGCCAACGUUCUCAACUAUGACACGCAAAACGCGUGCUCCGUUGAAUGGAUUUUAUCAUG, “polymerase ribozyme fitness (log ratio)” value -3.44. Against it:
- GGAUCUUCUCGAUCUAACAAAAAAGACAAAUCUGCCACAAAGCUUGAGAGCAUCUUCGGAUGCAGAGGCGGCAGGCUUCGGUGGCGCGAUAGCGCCAACGUUCUCAACUAUGACACGUAAAACGCGUGCUCCGUUGAAUGGAGUUUAUCAUG — lower, -3.87
- GGAUCUUCUCGAUCUAACAAAAAAGACAAAUCUGCCACAAAGCUUGAGAUCAACUUCAGAUGCAGAGGCGGCGGCCUUAGGUGGCGCGAUAGAGCCAACGUUCUCAUCUAUGACAGGCAAAACGCGUGCUCCGUUCAAUGGAGUUUAUCAUG — lower, ≤ -4.2
- GGGUCUUCUCGAUCUAACAAACAAGACAAAUCUGCCACAAAGCUCGAGAGCAUCUUCGGAUGCAGCCGCGGCAGCCUUCGGUGGCGCGAUAGUGCCAACGUUCUCAACUAUGUCACGCAAAACGCGUGCUCCGUUGAAUGGAGUUUAUCAUG — lower, ≤ -4.2
- GGAUCGUCUCGAUCUAACAAAAAAGACAAAUCUGCCACAAAGCUUGAGAGCAUCUUCGGAUGCAGAGGCGGCAGCCUUCGGUGGCGCGAUAGCGCCAACGUUCUCAACUAUGACACGCAAAACGCGUGCUCCGUUGAAUGGAGUUUAUCAUG — higher, 0.0167
- GGAUCUUCUCGAUCUAACAAAAAAGACAAAUCUGCCACAAAGCUUGAGAGCAUCUUCGGAUGCAGAGGCGGCAGCCUUCGGUGGCGCGAUAGCGCCAAUGUACUCAACUAUGACACGCAAAACGCGUGCUCCGUUGAAUGGAGUUUAUCAUG — higher, -1.33
- GGAUCUUCUCGAUCUAACACAAAAGAUAAAUCUGCCACAAAGCUUGAGAGCAUCUUCGGAUGCAGAGGCGGCAGCCUUCGAUGGCACGAUAGCGCCAAGGUUCUCAACUAUGACACGCAAAACGCGUGCUCCGUUGAAUGGAGUUUAUCAUG — higher, -2.96
- GGAUCUUCUCGAUCUAACAAAAAAGACAAAUCUGCCACCAAGCUUGAGAGCAACUUCGGAUCCAGAGGCGGCAGCCUUCGGUGGCGCGAUAGCGCCAACGUUCUCAACUAUGACACGCAAAACGCGUGCUCCGUUGAAUGGAGAUUAUCAUG — lower, ≤ -4.2
- GGAUCUUCUCGAUCUAACAAAAAAGACAAAUCUGCCACAAAGCUUGAGAGCAUUUUCGGAUGCAGAGGCGGCAGCCUUCGGAAGCGCGAUAGCGCCAGCGUUCUCAACUAUGACACGCAAAACGCGUGCUCCGUUGAAUGGAGUUUAUCAUG — higher, -1.89
- GGAUCUUCUCGAUCUAACAAAAAAGACAAAUCUGCCACAAAGCUUGAGAGCAUCUUCGGAUGCAGAGGCGGCAGCCUUCGGUGGGGCGAUAGCGCCAAGGUUCUCAACUAUGACAGGCAAAACGCGUGCUCCGUUUAAUGGAGUUUAUCAUG — lower, ≤ -4.2
- GGAUCUUCUCGAUCUAACAAAAAAGACAAAGCUGCCACAAAGCUUGAGAGCAUCUUCGGGUGCAGAGGCGGCAGCCUUCGGUGGCGCGAUAGCGCCAACGUUCUCAACUAUGACACGCAAAACGCGUGCUCCGUUGAAUGGAGUUUAUCAUU — higher, -3.16
- GGAUCUUCUCGAUCUAACAAAAAAGACAAAUCUGCCACAAAGCUUGAGAGCAUCUUCGGAUGCUGAGGCGGCAGCCUUCGGUGGCGCGAUAACGCCAACGUUCUCAACUAUGACACCCAAAACGCGUGCUCCGUUGAAUGGAGUAUAUCAUG — lower, ≤ -4.2
- GGAUCUUCUCGAUCUAACAAAAAAGACAAAUCUGCCACAACGCUUGAGAGCAUCUUCGGAUGCAGAGGCGGCAGCCUUCGGUGGCGCGAUAGCGACAACGUUCUCAACUAUGACACGCAAAACGCGUGCUCCGUUGAAUGGAGUUUAUCAUG — higher, -0.7
- GGAUCUUCUCGAUCUAAUAAAAAAGACAUUUCUGCCACAAAGCUUGAGAGCAUCUUCGGAUGCAGAGGCCGCAGCCUUCGGUGGCGCGAUAGCGCCAACGUUCUCAACUAUGACACGCAAAACGCGUGCUCCGUUGAAUGGAGUUUAUGAUG — lower, ≤ -4.2
- GGAUCUUCUCGAUCUAACAAAAAAGACAAAUCCGCCACAAUGCUUGAGAGCAUCUUUGGAUGCAGAGGCCGCAGCCUUCGGUAGCGCGAUAGCGCCAACGUUCUCAACUAUGACACGCCAAACGCGUGCUCCGUUGAAUGGAGUUUAUCAUG — lower, ≤ -4.2
- GGAUCUUCUCGAUCUAACAAAAAAGACUAAUCUGCCACAAAGCUUGAGAGCAUCUUCGGAUGCAGCGGCGGCAGCCUUCGGUUGCGCGAUAGCGCCAACGUUCUCAACUAUGACACGCAAAGCGCGUGCUCCGUUGAAUGGAGUUUAUCAUG — lower, -4.16
- GGAUCUUCUCGAUGUAACAAAAAAGACAAAUCUGCCACAAAGCUUGAGGGCAUCUUCGGAUGCAGAGGCGGCAGCCUUCGGUGGCGCGAUAGCGCCAACGUUCUCAACUAUGACACGCAAAACGCGUGCUCCGUUGAAUGGAGUUUAUCAUG — higher, -2.92
- GGAUCUUCUCGAUCUAACAAAAAAGACAAAUCUGCCACAAAGCUUGAGAGCAUCUUCGGAUGCAGAGGCGGCAGCCUUCGGUGGCGCGAUAGAGCCAACGUUCUCAACUAUGACACGCAAAACGCGUGCUCCGUUUAAUGGAGUUUAUCAUG — lower, -4.17
- GGAUCUUCUCGAUCUAACAAAAAAGACAAAUCUGCCACAAAGCUUGAGAGCAUCUGCGGAUGCAGAGGCGGCAGCCUUCGGUGGCGCGAUAGCGCCAACGUUCUCAACUAUGACACGCAAAACGCGUGCUCCGUGGAAUGGAGUUUAUCAUG — lower, -3.68
